Experimental findings from patent publication US20160097096A1 (KOREA RESEARCH INSTITUTE OF BIOSCIENCE AND BIOTECHNOLOGY, published 2016) are described below.

The assay concerns the target T1, human Desmoglein 2 (Dsg2) (human, UniProt Q14126 50-1118).
T1 construct: whole, on cells; Endogenous protein; In flow cytometry it stood on the surface of H1, H9 and iPSC cells; In immunoprecipitation and Western blotting it came from lysate of (surface-biotinylated) H9 cells, with bands of 165 kDa or 100 kDa
T1 sequence (looked up): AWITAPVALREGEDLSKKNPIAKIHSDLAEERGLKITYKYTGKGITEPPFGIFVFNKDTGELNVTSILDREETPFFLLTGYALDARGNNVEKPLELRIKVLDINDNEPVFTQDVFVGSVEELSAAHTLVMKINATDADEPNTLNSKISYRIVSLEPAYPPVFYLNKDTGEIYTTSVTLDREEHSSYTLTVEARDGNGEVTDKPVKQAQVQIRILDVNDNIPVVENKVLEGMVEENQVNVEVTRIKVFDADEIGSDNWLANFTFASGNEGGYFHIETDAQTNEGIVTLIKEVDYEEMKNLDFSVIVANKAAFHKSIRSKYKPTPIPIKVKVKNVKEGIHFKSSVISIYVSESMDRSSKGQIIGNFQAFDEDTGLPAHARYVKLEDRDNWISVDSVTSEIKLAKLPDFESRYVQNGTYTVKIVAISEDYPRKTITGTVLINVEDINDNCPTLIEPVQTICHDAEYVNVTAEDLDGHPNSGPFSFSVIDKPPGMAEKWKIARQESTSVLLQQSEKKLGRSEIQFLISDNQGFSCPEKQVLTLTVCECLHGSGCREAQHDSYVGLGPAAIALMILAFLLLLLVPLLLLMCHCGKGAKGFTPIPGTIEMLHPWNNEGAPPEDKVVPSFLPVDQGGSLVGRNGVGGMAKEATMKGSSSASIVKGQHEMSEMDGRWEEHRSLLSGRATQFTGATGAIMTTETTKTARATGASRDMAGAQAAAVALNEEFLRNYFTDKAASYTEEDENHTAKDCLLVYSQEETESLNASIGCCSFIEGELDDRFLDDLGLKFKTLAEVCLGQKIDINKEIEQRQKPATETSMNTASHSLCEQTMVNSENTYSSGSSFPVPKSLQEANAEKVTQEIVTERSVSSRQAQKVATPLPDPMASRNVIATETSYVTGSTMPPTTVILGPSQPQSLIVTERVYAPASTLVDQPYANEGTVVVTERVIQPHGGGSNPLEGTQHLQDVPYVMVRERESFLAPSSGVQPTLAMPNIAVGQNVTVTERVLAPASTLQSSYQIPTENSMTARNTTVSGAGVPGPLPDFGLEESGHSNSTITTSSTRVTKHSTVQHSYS
As to the kind of experiment: flow cytometry, fluorescence staining of H1, H9 and iPSC cells (endogenous Dsg2 on the surface). The protocol:
Among those clones prepared in Example 2, the hybridoma clone which secreted the antibody comparatively stably was selected and the binding capacity to human pluripotent stem cells was investigated. Particularly, the cultured human pluripotent stem cells were separated by using collagenase IV. The cells were treated with cell separation buffer (GIBCO) for 20 minutes at 37° C., leading to the separation of the cells as single cells. The cells were passed through 40 μm strainer, and 2×10⁵ cells proceeded to flow cytometry. The human pluripotent stem cells prepared as single cells were suspended in PBA (1% BSA was dissolved in PBS), followed by reaction with the antibody supernatant at 4° C. for 30 minutes. Centrifugation was performed at 4° C. at 1200 rpm for 5 minutes and 100 μl of the supernatant was eliminated. The anti-mouse Ig-FITC (BD) was diluted (1:200). […]
To investigate the binding capacity of the antibody 6-1 purified in Example <3-2> to human pluripotent stem cells, fluorescence staining was performed by the same manner as described in Example <3-1> (FIG. 2A). […] In FIG. 2A, the blue line illustrates the fluorescence staining of human pluripotent stem cells with the monoclonal antibody 6-1, wherein the antibody 6-1 bound to all of those three kinds of human pluripotent stem cells.
A general note: Flow cytometry measures light scatter and fluorescence of single cells or particles in a stream.

B1: monoclonal antibody 6-1 (antibody, V domains shown)
VH: QVKLQESGPELVRPGESVKISCKGSGYTFTDYAMHWVKQSPAKTLEWLGVISIYYDNTNYNQKFKGKATLTVDKSSSTAYMELARLTSEDSAIYYCAREGDYFALDYWGQGTSVTVSS
VL: DIVMTQSPAIMSASPGEKVTMTCSASSSVSYMYWYQQKPGSSPRLLIYDTSNLASGVPVRFSGSGSGTSYSLTISRMEAEDAATYYCQQWSSFPLTFGAGTKLELKR
notes: Mouse monoclonal antibody from hybridoma 6-1 (Balb/c mouse immunised with H9 cells, fused with NS1 myeloma); Purified from ascites on protein G-sepharose; hybridoma supernatant was used for screening; They were cloned with an IgG1 constant region primer and a kappa chain constant region primer
Consider B1, for which the binding result is listed as “binds”.
